Molecular target: T1, murine VEGFR1, over-expressed on cells (mouse, UniProt P35969 23-1333)
T1 construct: whole, on cells; also called mouse VEGFR1
T1 sequence (looked up): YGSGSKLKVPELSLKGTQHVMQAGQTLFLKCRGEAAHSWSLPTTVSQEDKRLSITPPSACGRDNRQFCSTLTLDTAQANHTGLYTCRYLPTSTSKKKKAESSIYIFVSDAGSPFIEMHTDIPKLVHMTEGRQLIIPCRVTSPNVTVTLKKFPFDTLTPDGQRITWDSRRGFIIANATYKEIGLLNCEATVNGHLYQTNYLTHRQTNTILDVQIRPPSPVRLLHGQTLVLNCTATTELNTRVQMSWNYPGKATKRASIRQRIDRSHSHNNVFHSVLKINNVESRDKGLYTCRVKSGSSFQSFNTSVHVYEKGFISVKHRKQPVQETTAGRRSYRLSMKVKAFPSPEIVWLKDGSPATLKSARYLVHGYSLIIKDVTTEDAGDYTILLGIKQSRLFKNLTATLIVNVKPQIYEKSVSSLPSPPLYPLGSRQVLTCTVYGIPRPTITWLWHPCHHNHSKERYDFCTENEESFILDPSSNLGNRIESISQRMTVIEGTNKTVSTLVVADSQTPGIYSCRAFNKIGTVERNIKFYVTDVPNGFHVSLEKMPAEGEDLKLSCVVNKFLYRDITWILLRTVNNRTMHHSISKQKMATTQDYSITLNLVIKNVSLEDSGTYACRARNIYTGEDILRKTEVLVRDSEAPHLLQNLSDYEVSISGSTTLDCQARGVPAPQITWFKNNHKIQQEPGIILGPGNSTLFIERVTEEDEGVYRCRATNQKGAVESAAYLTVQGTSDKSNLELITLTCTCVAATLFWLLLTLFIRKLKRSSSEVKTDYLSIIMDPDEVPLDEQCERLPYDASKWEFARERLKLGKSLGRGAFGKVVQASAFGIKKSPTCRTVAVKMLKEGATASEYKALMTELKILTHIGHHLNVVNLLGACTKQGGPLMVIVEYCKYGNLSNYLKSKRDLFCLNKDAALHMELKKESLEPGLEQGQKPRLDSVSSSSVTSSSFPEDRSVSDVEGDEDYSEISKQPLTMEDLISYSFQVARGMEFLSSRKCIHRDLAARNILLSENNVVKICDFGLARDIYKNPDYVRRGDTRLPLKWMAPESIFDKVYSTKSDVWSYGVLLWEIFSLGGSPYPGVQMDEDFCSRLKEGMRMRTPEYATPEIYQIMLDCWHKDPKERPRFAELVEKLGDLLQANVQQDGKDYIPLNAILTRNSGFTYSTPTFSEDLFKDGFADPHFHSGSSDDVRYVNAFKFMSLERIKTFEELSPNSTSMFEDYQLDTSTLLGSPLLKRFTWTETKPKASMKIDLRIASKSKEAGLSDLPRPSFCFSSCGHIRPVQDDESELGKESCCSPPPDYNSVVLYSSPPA
Test: FACS cell binding (MFI) on HEK cells over-expressing murine VEGFR1; expanded clone supernatant per paragraph 492, concentration not given
In short: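 Flow cytometry was used to measure binding of culture supernatants to HEK cells over-expressing mouse VEGFR1 or human VEGFR2 and to K562 cells over-expressing human VEGFR3. The supernatants came from chicken-derived clones expressed as scFv-Fc (human IgG1) by transient transfection and expanded to 6-well plates (2 mL). Binding is reported as mean fluorescence intensity.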

binding result: binds
B1: VGFB71 (antibody, human IgG1, lambda, L234A L235A, V domains shown)
VH: EVQLLESGGGLVQPGGSLRLSCEASGFIFRDYNMNWVRQAPGKGLEWVSIITNDGSSTAYSDSVKGRFTISRDNSKNSLYLQMNSLRAEDTAIYYCVKVYYGMDDWGQGTTVTVSS
VL: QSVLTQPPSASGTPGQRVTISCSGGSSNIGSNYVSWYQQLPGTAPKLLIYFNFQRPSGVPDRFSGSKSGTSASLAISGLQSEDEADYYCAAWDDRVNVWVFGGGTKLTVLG
notes: human IgG1 (L234A/L235A/D265S)
